{"source": "patent US20210000879A1", "about": "“METHODS AND COMPOSITIONS FOR MRNA-BASED MODULATION AND DETECTION OF CELL PHENOTYPES” (Georgia Tech Research Corporation, priority 2018, published 2021)", "molecules": {"B1": {"name": "JAWS mRNA: mRNA encoding the inhibitory opsin JAWS, activated by constant orange or red light (nucleic acid)", "chain": "GGGAAATAAGAGAGAAAAGAAGAGTAAGAAGAAATATAAGAGCCACCATGACCGCCGTGTCTACCACAGCCACAACAGTGCTGCAGGCCACACAGAGCGACGTGCTGCAAGAGATCCAGAGCAACTTCCTGCTGAACAGCAGCATCTGGGTCAACATTGCCCTGGCCGGCGTTGTGATCCTGCTGTTTGTGGCCATGGGCCGCGATCTGGAAAGCCCTAGAGCCAAGCTGATCTGGGTCGCCACAATGCTGGTGCCCCTGGTGTCTATCAGCAGCTATGCCGGACTGGCCTCTGGCCTGACAGTGGGCTTTCTGCAAATGCCTCCTGGACACGCCCTGGCTGGACAAGAAGTTCTGTCTCCCTGGGGCAGATACCTGACCTGGACCTTCAGCACCCCTATGATTCTGCTGGCCCTGGGACTGCTGGCCGATACAGATATCGCCAGCCTGTTCACCGCCATCACCATGGACATCGGGATGTGTGTGACAGGCCTGGCCGCTGCTCTGATCACAAGCAGCCATCTGCTGAGATGGGTGTTCTACGGAATCAGCTGCGCCTTCTTCGTGGCCGTGCTGTATGTGCTGCTGGTGCAGTGGCCTGCCGATGCTGAAGCTGCCGGAACCTCTGAGATCTTCGGCACCCTGAGAATCCTGACCGTGGTGCTGTGGCTGGGCTACCCTATTCTGTTTGCCCTGGGCTCTGAAGGCGTGGCACTGCTGTCTGTGGGAGTGACAAGCTGGGGCTATAGCGGCCTGGACATCCTGGCCAAATACGTGTTCGCCTTTCTGCTCCTCAGATGGGTCGCCGCCAATGAGGGAACAGTGTCTGGCTCTGGCATGGGCATTGGATCTGGCGGAGCTGCCCCTGCTGATGATCCAGCTGCTGCCACCTATCCTTACGACGTGCCCGACTACGCCTGATGAGCTGCCTTCTGCGGGGCTTGCCTTCTGGCCATGCCCTTCTTCTCTCCCTTGCACCTGTACCTCTTGGTCTTTGAATAAAGCCTGAGTAGGAAGGCTCGCTTTCTTGCTGTCCAATTTCTATTAAAGGTTCCTTTGTTCCCTAAGTCCAACTACTAAACTGGGGGATATTATGAAGGGCCTTGAGCATCTGGATTCTGCCTAATAAAAAACATTTATTTTCATTGCGC"}, "B2": {"name": "CatCH: mRNA encoding a modified ChR2 with a single amino acid substitution, CatCH (nucleic acid)", "DNA": "GGGAAATAAGAGAGAAAAGAAGAGTAAGAAGAAATATAAGAGCCACCATGGATTACGGCGGAGCCCTGTCTGCCGTGGGCAGAGAACTGCTGTTCGTGACCAACCCCGTGGTCGTGAACGGCAGCGTGCTGGTGCCTGAGGACCAGTGTTACTGCGCCGGCTGGATCGAGAGCAGAGGCACAAACGGCGCCCAGACCGCCTCTAACGTGCTGCAGTGGCTGGCCGCTGGCTTCAGCATCCTGCTGCTGATGTTCTACGCCTACCAGACCTGGAAGTCTACCTGCGGCTGGGAAGAGATCTACGTGTGCGCCATCGAGATGGTCAAAGTGATCCTGGAATTCTTCTTCGAATTCAAAAACCCCTCCATGCTGTACCTGGCCACCGGCCACAGAGTGCAGTGGCTGAGATACGCCGAGTGGCTGCTGACCTGCCCCGTGATCTGCATCCACCTGAGCAACCTGACCGGCCTGTCCAACGACTACAGCAGACGGACCATGGGCCTGCTGGTGTCCGACATCGGCACAATCGTGTGGGGCGCCACAAGCGCCATGGCCACAGGCTACGTGAAAGTGATCTTCTTCTGCCTGGGCCTGTGCTACGGCGCCAACACATTCTTCCACGCCGCCAAGGCCTACATCGAGGGCTACCACACAGTGCCCAAGGGCAGATGCAGACAGGTCGTGACAGGCATGGCCTGGCTGTTCTTCGTGTCCTGGGGCATGTTCCCCATCCTGTTCATCCTGGGCCCTGAGGGCTTCGGCGTGCTGTCTGTGTACGGCTCTACCGTGGGCCACACCATCATCGACCTGATGAGCAAGAACTGTTGGGGACTGCTGGGCCACTACCTGAGAGTGCTGATCCACGAGCACATCCTGATTCACGGCGACATCAGAAAGACCACCAAGCTGAACATCGGCGGCACCGAGATCGAGGTGGAAACCCTGGTGGAAGATGAGGCCGAGGCTGGCGCTGTGCCAGCCGCTGCTACAGGTAAGCCTATCCCTAACCCTCTCCTCGGTCTCGATTCTACGTGATAAGCTGCCTTCTGCGGGGCTTGCCTTCTGGCCATGCCCTTCTTCTCTCCCTTGCACCTGTACCTCTTGGTCTTTGAATAAAGCCTGAGTAGGAAGGC", "modifications": "mRNA transcribed from DNA"}}, "key": {"[1]": {"tested_on": "rat model of complete heart block", "experiment": "Effect of TGF-beta small molecule inhibitor on ventricular pacing with TBX18 mRNA", "assay_type": "in vivo", "settings": "A83-01 released by osmotic pump", "procedure": "On Day 0, an osmotic pump releasing A83-01 (a TGF-beta inhibitor, Sigma Aldrich) was implanted into the rats. On Day 1, TBX18 mRNA was injected into the rats and a telemetry device was also implanted. Two doses of TBX18 mRNA were given to the rats: (i) a low dose of 100 μg TBX18 mRNA with 68.4 μl RNA-free phosphate-buffered saline (PBS), or (ii) a high dose of 300 μg TBX18 mRNA with 205 μl RNA-free PBS. A continuous telemetry recording of each rat's electrocardiogram (ECG) was made for 21 days after implantation of the telemetry device. In addition, 3-lead surface ECGs were performed on anesthetized animals on Days 7, 14, and 21 along with an isoproterenol challenge. The heart was harvested from each animal on Day 21.\nThe inventors then determined the effects of including a TGF-beta small molecule inhibitor on ventricular pacing with TBX18 mRNA (FIG. 16)."}, "[2]": {"tested_on": "Human iPS cell-derived cardiomyocytes", "experiment": "MEA functional testing of mRNA-expressed opsins with light excitation", "assay_type": "cell-based", "procedure": "Human iPS cell-derived cardiomyocytes were seeded into 48 well Axion MEA plates and cultured for 2 weeks until completely synchronized electrical activity (beat rate) was observed. Cells were transfected with ChR2 mRNA, JAWs mRNA, delivery vehicle only, or a mixture of both mRNAs using a modified PEI derivative (Lypocalyx Gmbh). Transfected cells were assayed using the Axion Maestro MEA and Lumos light excitation device at 6 hours and 24 hours post transfection. Assays were comprised of electrical readout (16 electrodes per well) with either no stimulus, blue light stimulus (drives firing in ChR2-transfected cells), orange light stimulus (inhibits firing in JAWs-transfected cells), or blue light impulse stimulus with a period of constant orange light.\nAs a preliminary step, the inventors determined the optimal amount of delivery vehicle to transfect cells for adequate function of the expressed mRNA, defined as complete control of beat rate with ChR2 and conversely complete inhibition of firing with JAWs. […] Delivery vehicle alone had no effect on native cell beat rates, thus it is likely that higher amounts of protein can be generated if opsin function is required more rapidly. […] Using 0.1 ul of delivery vehicle, all three wells (100%) were paced via light (FIG. 3C).\nThe inventors next tested expression and function of ChR2 and JAWS (inhibitory opsin) in iPS-derived cardiomyocytes. Here, 500 ng each of ChR2 and JAWS mRNA were delivered to iPS-derived cardiomyocytes in an MEA plate (FIG. 9). The next day, cells were paced using pulsed blue light stimulation (arrows). At the same time, orange light was used for several seconds (bars) to prevent cardiomyocytes from beating."}, "[3]": {"tested_on": "neonatal rat ventricular cardiomyocytes (NRVMs)", "experiment": "Capture of CatCh transfected NRVMs by 475 nm blue light stimulation", "assay_type": "cell-based", "procedure": "(§1) As a first step, the inventors expressed CatCh in neonatal rat ventricular cardiomyocytes (NRVMs) using IVT mRNA. Transfection conditions were varied using GFP mRNA. After identifying the optimal vehicle for transfection (Viromer Red), the expression of the protein of interest, CatCh-V5, was assessed after a 24 hour pulse of mRNA. […] CatCh-V5 localized to the membrane of transfected cells roughly 12 hours after transfection. […] The inventors next evaluated the function of transfected NRVMs. CatCh is an opsin, which induces a membrane depolarization in response to blue light stimulation. CatCh transfected NRVMs were exposed to a range of optical intensities (0 to 100% power) using 475 nm blue LED light. At each light intensity, the inventors scanned a range of stimulation durations (1 to 15 milliseconds). A train of monophasic square waves at a frequency of 2 Hz for a total of 30 seconds was utilized. The inventors compared the capture rate of CatCh versus Channelrhodopsin 2 (ChR2), a commonly used opsin. […] Cells were then subjected to blue light stimulation and analyzed for capture at different transfection amounts and timepoints."}, "[4]": {"tested_on": "neonatal rat ventricular cardiomyocytes (NRVMs)", "experiment": "CatCh-V5 expression time course by imaging and flow cytometry", "assay_type": "cell-based", "settings": "24 hour pulse of mRNA; Viromer Red", "procedure": "as §1"}, "[5]": {"tested_on": "neonatal rat ventricular myocytes (NRVMs)", "experiment": "MEA light pacing of NRVMs transfected with ChR2 or CatCH mRNA", "assay_type": "cell-based", "from_the_text": "For proper characterization of cells transfected with opsins, in addition to protein expression, another metric, function, can assist in properly optimizing the use of mRNA as an expression vector. Functional characterization can be performed with the use of a multi-electrode array (MEA). An MEA device uses electrodes to measure the field potential of nearby cells. Changes in field potential in cardiomyocytes can be detected in an amplitude and location-specific manner depending on the pickup electrode. The MEA device used, a Maestro from Axion Biosystems, allows the simultaneous measurement and light excitation of 16 electrodes per well in a 48 well plate. By employing primary ventricular cardiomyocytes from neonatal rats (NRVMs), functional expression of an opsin such as ChR2 can be measured as a synchronization event between electrical activity and pulsed light excitation from the LEDs embedded in the Axion Lumos device.\nPacing cardiac myocytes allows the screening of new drugs in a controlled environment, where the effect on beat frequency and waveforms can be measured against predicted values in the presence/absence of drugs. The inventors transfected neonatal rat ventricular myocytes (NRVMs) with mRNA encoding ChR2 and a modified ChR2 with a single amino acid substitution, CatCH. NRVMs were plated on MEA plates and the next day were transfected with ChR2 or CatCH mRNA at varying concentrations in triplicate wells using Viromer Red (Lipocalyx). […] Furthermore, when interrogated with excitation rates of 1 hz, 2 hz, and 3 hz, CatCH transfected cells were able to be driven at higher beat rates (3 hz) up to 72 hours post-transfection (FIG. 8) compared to ChR2 transfected cells. As the amount of mRNA and structure of the opsin are very similar, this difference can be inferred as due to enhanced opsin sensitivity—fewer opsins per cell were necessary to drive cardiac action potentials. When opsin expression was low, such as at timepoints several days following transfection, cardiac cells could only be driven at the slower rate of 1 hz successfully."}}}
{"molecule": "Cc1cccc(-c2nn(C(=S)Nc3ccccc3)cc2-c2ccnc3ccccc23)n1", "note": "[A83-01, reference compound]", "values": [{"measurement": "effect on ventricular pacing / block", "setting": "[1]", "value": "reversed the block"}]}
{"molecule": "B1", "values": [{"measurement": "opsin function in dual transfection", "setting": "[2]; 500 ng each of ChR2 and JAWS mRNA, next day, pulsed blue light and orange light", "value": "function of both opsins"}, {"measurement": "inhibition of beating under continuously applied orange light", "setting": "[2]; period of 10 seconds orange light", "value": "inhibited beating completely"}, {"measurement": "time post-transfection at which complete capture (synchronization or complete inhibition) was observed", "setting": "[2]; second highest and highest amounts of delivery vehicle", "value": 24, "unit": "h"}]}
{"molecule": "B2", "values": [{"measurement": "optimal RNA dose to achieve reliable pacing over time", "setting": "[3]; 0.1, 1 and 10 ng/1000 cells tested", "value": "1 ng/1,000 cells"}, {"measurement": "capture rate versus Channelrhodopsin 2 (ChR2)", "setting": "[3]; 475 nm blue LED, 0 to 100% power, 1 to 15 milliseconds, 2 Hz for 30 seconds", "value": "superior sensitivity"}, {"measurement": "days post-transfection with highest capture rates at lowest stimulation thresholds", "setting": "[3]; blue light stimulation", "value": "1 to 3", "unit": "days"}, {"measurement": "time after transfection to membrane localization", "setting": "[4]", "value": "roughly 12 hours"}, {"measurement": "time by which expression dropped off significantly", "setting": "[4]", "value": "≤ 5", "unit": "days"}, {"measurement": "time of peak expression", "setting": "[4]", "value": 24, "unit": "h"}, {"measurement": "light sensitivity compared with ChR2 based on MEA measurements", "setting": "[5]; 125 ng of CatCH versus 1000 ng of ChR2", "value": "much higher sensitivity than ChR2"}, {"measurement": "maximum beat rate comparison with ChR2", "setting": "[5]; 1 hz, 2 hz, 3 hz LED pulsing, time course", "value": "able to sustain higher frequencies"}, {"measurement": "LED light intensity to which the opsin responds", "setting": "[5]; 24 hours post transfection", "value": 5, "unit": "%"}, {"measurement": "light required for electrical response relative to ChR2", "setting": "[5]; 24 hours post-transfection", "value": 15, "unit": "times"}, {"measurement": "time post-transfection up to which cells could be driven at 3 hz", "setting": "[5]; LED pulsing, maximum intensity excitation light", "value": "up to 72 hours"}, {"measurement": "beat rate at which cells were able to be driven", "setting": "[5]; excitation rates of 1 hz, 2 hz, and 3 hz, up to 72 hours post-transfection", "value": 3, "unit": "hz"}]}
